This is an account of results in publication PMC5500810, “Identification and characterization of Nanobodies targeting the EphA4 receptor” (The Journal of Biological Chemistry, 2017).

Assay [1] addresses T1, human EphA4-Fc (R&D Systems) (Homo sapiens, UniProt P54764).
T1 construct: EphA4, human; the results call it 'full-length recombinant' receptor, the methods an EphA4-hFc fusion protein from R&D Systems; also called hEphA4-Fc; EphA4-hFc; source: bought: R&D Systems
The assay is described as follows: co-IP; Nb on anti-HA magnetic Dynabeads used to capture recombinant EphA4; EphA4 detected with N-terminal anti-EphA4 antibody. As to conditions: both partners purified.

The target in assay [2] is T2, EphA4 ligand-binding domain (human, amino acids 22-203) (human, UniProt P54764, biotin on primary amines (EZ link NHS biotin) in the AlphaScreen assays only).
T2 construct: cloned from the EphA4 Human cDNA ORF clone (Origene); His6 tag removed with murine caspase-3; Amine-coupled to the chip in SPR; biotinylated in AlphaScreen; also called EphA4 LBD; hEphA4 LBD; source: E. coli BL21 codon+ pICA2, purified (Ni-Sepharose, Source 15Q, Superdex 75); not shown: His6, N-terminal, cleaved
The assay is described as follows: SPR; Biacore T200; EphA4 LBD amine-coupled to CM5 chip (300 RU); Nbs (1-300 nM) as analyte, 60 μl/min; 10 mM Hepes, 150 mM NaCl, 3 mM EDTA, 0.01 mM Surfactant P-20, pH 7.35; two-state model. The following applies: both partners purified.

The target of assay [3] is T3, mouse EphA4-Fc (R&D Systems) (mouse, UniProt Q03137).
T3 construct: EphA4, mouse; the results call it 'full-length recombinant' receptor, the methods an EphA4-hFc fusion protein from R&D Systems; also called mEphA4-Fc; EphA4-hFc (mouse); source: bought: R&D Systems
The assay is described as follows: co-IP; 2.5 μg recombinant mouse or human EphA4 protein (or recombinant ephrin-B2 as negative control) on protein G magnetic Dynabeads, 1 μg Nb overnight at 4 °C, PBS washes; Nb detected with anti-HA. As to conditions: both partners purified.

Assay [4] addresses T4, mouse recombinant EphA3 (Fc-tagged; R&D Systems) (mouse, UniProt P29319).
T4 construct: EphA3, mouse, recombinant, Fc-tagged; source: bought: R&D Systems
Put plainly: AlphaScreen or HTRF; biotinylated Nbs (100 nM) with subhooking concentrations (10-100 nM) of mouse Fc-tagged Eph receptors; anti-IgG AlphaLISA acceptor and streptavidin donor beads; 50 mM Hepes, 100 mM NaCl, 0.1% Triton, 0.1% BSA; room temperature. As to conditions: both partners purified.

In assay [5] the target is T5, mouse recombinant EphA7 (Fc-tagged; R&D Systems) (mouse, UniProt Q61772).
T5 construct: EphA7, mouse, recombinant, Fc-tagged; source: bought: R&D Systems
Described as above. The following applies: both partners purified.

Assay [6] has as its target T2, EphA4 ligand-binding domain (human, …).
In assay [7] the target is T6, ephrin-B2 (Fc-tagged; R&D Systems) (UniProt P52799).
T6 construct: ephrin-B2, recombinant, Fc-tagged (R&D Systems); also called recombinant ephrin-B2; ephrin-B2 ligand; source: bought: R&D Systems
Put plainly: co-IP; 2.5 μg recombinant mouse or human EphA4 protein (or recombinant ephrin-B2 as negative control) on protein G magnetic Dynabeads, 1 μg Nb overnight at 4 °C, PBS washes; Nb detected with anti-HA. The following applies: both partners purified.

Assay [8] deals with T1, human EphA4-Fc (R&D Systems). The assay is described as follows: SPR; Biacore T200; EphA4-hFc (human or mouse) captured (~500 RU) on anti-human Fc antibody; Nbs as analyte; 10 mM Hepes, 150 mM NaCl, 3 mM EDTA, 0.01 mM Surfactant P-20, pH 7.35; 1:1 or two-state model. The following applies: both partners purified.
Assay [9] has as its target T3, mouse EphA4-Fc (R&D Systems). The assay is described as above. The following applies: both partners purified.
The target is the same in assay [10]. The assay is described as follows: co-IP; Nb on anti-HA magnetic Dynabeads used to capture recombinant EphA4; EphA4 detected with N-terminal anti-EphA4 antibody. The following applies: both partners purified.
The target in assay [11] is T1, human EphA4-Fc (R&D Systems). Put plainly: co-IP; 2.5 μg recombinant mouse or human EphA4 protein (or recombinant ephrin-B2 as negative control) on protein G magnetic Dynabeads, 1 μg Nb overnight at 4 °C, PBS washes; Nb detected with anti-HA. The following applies: both partners purified.
In assay [12] the target is T2, EphA4 ligand-binding domain (human, …). The assay is described as follows: cell-based or functional assay.
Assay [13] deals with T7, human EphA7 (recombinant, EphA7/ephrin-A5 competition assay) (Homo sapiens, UniProt Q15375).
T7 construct: EphA7, human; Probably an Fc chimera of the extracellular domain, since anti-IgG acceptor beads were used
The assay is described as follows: AlphaScreen or HTRF; competition: human EphA7 (3 nM) preincubated 1 h with increasing Nb, then biotinylated His-tagged human ephrin-A5 (30 nM); anti-IgG acceptor and streptavidin donor beads; 50 mM Hepes, 100 mM NaCl, 0.1% Triton, 0.1% BSA. As to conditions: both partners purified.

Read-outs that look alike come from different tables or passages of the source.

T3 sequence (Q03137 20-547): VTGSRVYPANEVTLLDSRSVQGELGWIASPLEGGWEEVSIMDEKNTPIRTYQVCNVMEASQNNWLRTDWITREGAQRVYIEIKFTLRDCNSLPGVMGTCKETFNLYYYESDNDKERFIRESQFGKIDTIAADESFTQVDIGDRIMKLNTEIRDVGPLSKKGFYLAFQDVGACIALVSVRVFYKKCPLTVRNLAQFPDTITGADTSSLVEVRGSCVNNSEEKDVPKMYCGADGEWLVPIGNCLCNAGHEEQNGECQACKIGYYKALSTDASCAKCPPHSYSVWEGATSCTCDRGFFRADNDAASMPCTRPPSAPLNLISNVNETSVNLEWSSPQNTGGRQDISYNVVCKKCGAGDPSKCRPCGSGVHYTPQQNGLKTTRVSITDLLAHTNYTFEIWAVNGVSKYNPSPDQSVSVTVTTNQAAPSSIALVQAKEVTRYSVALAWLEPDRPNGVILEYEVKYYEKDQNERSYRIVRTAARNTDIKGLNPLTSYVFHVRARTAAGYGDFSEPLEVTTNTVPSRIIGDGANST
T2 sequence (P54764 22-203): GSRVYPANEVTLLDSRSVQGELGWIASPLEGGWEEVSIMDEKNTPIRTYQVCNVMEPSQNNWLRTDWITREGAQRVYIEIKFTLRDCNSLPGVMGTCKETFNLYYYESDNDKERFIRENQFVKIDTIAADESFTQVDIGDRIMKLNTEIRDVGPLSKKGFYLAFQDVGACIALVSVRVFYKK
T1 sequence (P54764 20-547): as the sequence (Q03137 20-547) above, with A59P, S121N, G124V, Q250R, N251S, S270T, R378K, S406N counted along it
T7 sequence (Q15375 28-998): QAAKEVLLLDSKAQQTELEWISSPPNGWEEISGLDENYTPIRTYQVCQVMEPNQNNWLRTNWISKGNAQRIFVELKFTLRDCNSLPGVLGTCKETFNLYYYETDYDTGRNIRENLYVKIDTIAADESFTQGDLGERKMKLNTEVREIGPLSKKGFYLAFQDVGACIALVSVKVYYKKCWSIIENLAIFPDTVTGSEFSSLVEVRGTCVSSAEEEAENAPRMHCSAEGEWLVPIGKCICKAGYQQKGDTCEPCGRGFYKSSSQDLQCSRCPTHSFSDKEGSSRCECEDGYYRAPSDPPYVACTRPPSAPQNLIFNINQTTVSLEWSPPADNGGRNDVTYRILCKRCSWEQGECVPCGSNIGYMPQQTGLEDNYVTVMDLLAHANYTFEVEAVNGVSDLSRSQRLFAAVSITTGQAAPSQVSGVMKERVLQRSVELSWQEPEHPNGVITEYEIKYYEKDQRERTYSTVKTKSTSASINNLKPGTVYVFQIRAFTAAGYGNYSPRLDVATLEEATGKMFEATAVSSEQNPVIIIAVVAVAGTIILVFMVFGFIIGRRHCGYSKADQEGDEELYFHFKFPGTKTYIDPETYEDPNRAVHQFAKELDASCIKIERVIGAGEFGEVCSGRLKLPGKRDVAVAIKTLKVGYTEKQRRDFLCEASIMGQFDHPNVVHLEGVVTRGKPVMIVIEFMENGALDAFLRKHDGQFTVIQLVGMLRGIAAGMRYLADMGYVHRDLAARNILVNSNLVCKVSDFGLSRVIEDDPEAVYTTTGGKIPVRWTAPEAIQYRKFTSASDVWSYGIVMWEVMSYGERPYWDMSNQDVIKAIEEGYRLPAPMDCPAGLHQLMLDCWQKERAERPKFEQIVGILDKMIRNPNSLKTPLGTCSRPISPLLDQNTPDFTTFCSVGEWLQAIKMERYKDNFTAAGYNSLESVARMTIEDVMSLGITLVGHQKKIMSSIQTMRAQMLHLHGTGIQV
T4 sequence (P29319 21-540): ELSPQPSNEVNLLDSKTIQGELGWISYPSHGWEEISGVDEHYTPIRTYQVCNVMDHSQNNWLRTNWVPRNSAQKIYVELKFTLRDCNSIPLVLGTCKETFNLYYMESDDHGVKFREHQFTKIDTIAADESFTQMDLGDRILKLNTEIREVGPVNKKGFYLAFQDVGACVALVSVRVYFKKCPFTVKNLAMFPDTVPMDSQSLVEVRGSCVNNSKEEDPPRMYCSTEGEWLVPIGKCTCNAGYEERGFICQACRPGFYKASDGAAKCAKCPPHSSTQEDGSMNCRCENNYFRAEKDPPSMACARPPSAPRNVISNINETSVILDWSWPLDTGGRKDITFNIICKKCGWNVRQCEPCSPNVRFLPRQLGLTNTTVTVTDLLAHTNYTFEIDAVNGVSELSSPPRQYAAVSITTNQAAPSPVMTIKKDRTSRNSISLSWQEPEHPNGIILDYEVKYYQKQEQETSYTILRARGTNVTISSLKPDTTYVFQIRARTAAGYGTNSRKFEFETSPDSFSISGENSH
T5 sequence (Q61772 28-555): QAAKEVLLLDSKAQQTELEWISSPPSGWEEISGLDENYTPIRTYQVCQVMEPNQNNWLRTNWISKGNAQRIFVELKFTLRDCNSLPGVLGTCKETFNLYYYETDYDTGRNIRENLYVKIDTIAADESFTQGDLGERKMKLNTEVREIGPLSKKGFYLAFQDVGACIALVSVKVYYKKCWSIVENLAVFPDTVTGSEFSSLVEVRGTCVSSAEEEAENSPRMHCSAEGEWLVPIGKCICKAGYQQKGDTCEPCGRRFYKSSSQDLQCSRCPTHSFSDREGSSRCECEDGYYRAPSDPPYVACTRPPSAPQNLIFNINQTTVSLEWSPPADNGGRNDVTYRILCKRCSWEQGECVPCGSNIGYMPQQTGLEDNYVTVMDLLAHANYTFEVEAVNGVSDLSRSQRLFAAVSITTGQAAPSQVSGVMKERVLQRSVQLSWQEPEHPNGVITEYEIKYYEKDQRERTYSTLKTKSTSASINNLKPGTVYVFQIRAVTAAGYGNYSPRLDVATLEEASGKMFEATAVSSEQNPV
T6 sequence (P52799 28-229): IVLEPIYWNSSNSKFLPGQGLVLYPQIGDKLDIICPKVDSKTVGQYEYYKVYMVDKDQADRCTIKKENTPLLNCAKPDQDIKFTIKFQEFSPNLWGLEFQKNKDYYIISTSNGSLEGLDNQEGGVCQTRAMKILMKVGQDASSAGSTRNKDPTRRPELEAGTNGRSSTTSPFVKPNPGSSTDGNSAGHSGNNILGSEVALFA

B1: Nb 57 (VHH)
VHH: QVQLQESGGGLVQPGGSLRLSCAASGFTFSSYYMYWVRQAPGKGLEWVSTINTGGGSTNYADSVKGRFIISRDNAKNTVYLQMNSLKPEDTAVYYCNAFAAGWGPDYWGQGTQVTVSS
notes: Cloned in the phagemid pMECS; Same clonal group as Nb 19; also called Nanobody 57; source: E. coli WK6, periplasmic extract, purified (His GraviTrap, Sephadex G25)
Take B1: the binding result in assay [1], in [2], in [3], in assay [4] and in assay [5] was “binds” in each case.

B2: Nb 90 (VHH)
VHH: QVQLQESGGGLVQPGGSLRLSCAASGFTFSSHWIYWVRQAPGKQRELVAAITSGGSTNYADSVKGRFTISRDNAKNTVFLQMNSLKPEDTAVYYCNAWGFLLGDIEDYWGQGTQVTVSS
On to B2, for which the binding result in assay [6] is listed as “binds”.

B3: Nb 60 (VHH)
VHH: QVQLQESGGGLVQPGGSLRLSCAASGFTFSRYWIYWVRQAPGKQRELVAAITRNGVTNYADSVKGRFTISTDDNKNTVYLQMNSLKSEDTAVYYCNAWGFLLGDIEDYWGQGTQVTVSS
notes: Cloned in the phagemid pMECS; Same clonal group as Nb 90; also called Nanobody 60; source: E. coli WK6, periplasmic extract, purified (His GraviTrap, Sephadex G25)
Turning to B3, the binding result in assay [2], in assay [7], in assay [8] and in assay [9] was “binds” in each case.

B4: Nb 28 (VHH)
VHH: QVQLQESGGGLVQAGGSLRLSCAASGFTFSSNWMYWVRQAPGKGLEWVSGINSGGSSTYYSDSVKGRFTISRDNAKNTLYLQMNSLKPEDTAVYYCAKYSGSYYYRRGPGTQVTVSS
As for B4, the binding result in assay [6] is “binds”.

B5: Nb 10 (VHH)
VHH: QVQLQESGGGLVQAGGSLRLSCAASGRTFSSYAMGWFRQAPGTKREMIAAVTKAGTTSYANPVKGRFTISRDDAKNMVYLQMNNLKPEDSAVYYCNAISPLWDEYDFWGPGTQVTVSS
As to B5, in assay [6], the binding result is listed as “binds”.

B6: Nb 31 (VHH)
VHH: QVQLQESGGGLVQAGGSLRLSCAASGFASDAYAIGWFRQAPGTKREMIAAVTKAGATNYANPVKGRFTISRDDAKNMVYLQMNNLKPEDSAVYYCNAISPLWDEYDFWGPGTQVTVSS
notes: Cloned in the phagemid pMECS; Same clonal group as Nb 50, 10 and 53; also called Nanobody 31; source: E. coli WK6, periplasmic extract, purified (His GraviTrap, Sephadex G25)
B6: the binding result in [10], in assay [2] and in [11] was “binds” each time.

B7: Nb 53 (VHH)
VHH: QVQLQESGGGVVQAGGSLRLSCAASGRAFSSYAMGWFRQAPGTKREMIAAVTRAGTTNYANPVKGRFTISRDDAKNMVYLQMNNLKPEDSAVYYCNAISPLWDEYDFWGPGTQVTVSS
notes: Cloned in the phagemid pMECS; Same clonal group as Nb 31, 50 and 10; also called Nanobody 53; source: E. coli WK6, periplasmic extract, purified (His GraviTrap, Sephadex G25)
As to B7, the “IC50 of inhibition of ephrin-A1-induced EphA4 phosphorylation (PathHunter assay, EphA4-expressing U2OS cells); blocks ephrin-A1 with EphA4” value in assay [12] stood at 261 nM. Further, the binding result in assay [10] and in [13] was “binds” each time.

B8: Nb 71 (VHH)
VHH: QVQLQESGGGLVQPGGSLRLSCAASGFTFSSYWMYWVRQTPGKGLEWVSGINSPGSITGYADSVKGRFTISRDNAKNTLYLQMNSLKSDDTAVYYCARDLTYGGNSLRYIERGQGTQVTVSS
As to B8, in [6], the binding result was “binds”.

B9: Nb 34 (VHH)
VHH: QVQLQESGGGLVQAGGSLRLSCAASGFTFSSYAMSWVRQAPGKGLEWVSGINTGGGSTYYADSVKGRFTISRDNAKNTLYLQMNSLKSEDTAVYYCVPRVGVLEGLTSFGSWGQGTQVTVSS
notes: Cloned in the phagemid pMECS; Same clonal group as Nb 47; also called Nanobody 34; source: E. coli WK6, periplasmic extract, purified (His GraviTrap, Sephadex G25)
For B9, the binding result in assay [2] is listed as “no binding (tested: 1–300 nM)”.

B10: Nb 47 (VHH)
VHH: QVQLQESGGGLVQPGGSLRLSCAASGFTFSSYAMSWVRQAPGKGLEWVSGINTGGGSTYYADSVKGRFTISRDNAKNTLYLQMNSLKSEDTAVYYCVPRVGVLEGLTSFGSWGQGTQVTVSS
notes: Cloned in the phagemid pMECS; Same clonal group as Nb 34; also called Nanobody 47; source: E. coli WK6, periplasmic extract, purified (His GraviTrap, Sephadex G25)
As for B10, the binding result in [2] is listed as “no binding (tested: 1–300 nM)”.

B11: Nb 39 (VHH)
VHH: QVQLQESGGGLVQPGGSLKLSCAASGFTFSTYAMSWVRQAPGKGLEWVSRINSGGGYTWHADSVKGRFTISRDNARNTVYLQMNNLKPEDTAVYYCTNLNTGWRPEYWGQGTQVTVSS
notes: Cloned in the phagemid pMECS; also called Nanobody 39; source: E. coli WK6, periplasmic extract, purified (His GraviTrap, Sephadex G25)
Regarding B11, the “IC50 of inhibition of ephrin-A1-induced EphA4 phosphorylation (PathHunter assay, EphA4-expressing U2OS cells); blocks ephrin-A1 with EphA4” value in assay [12] was determined as 170 nM. The binding result in assay [10] and in assay [13] was “binds” in each case.

B12: Nb 19 (VHH)
VHH: QVQLQESGGGLVQPGGSLRLSCAATGRNFNAYSIAWFRQAPGKEREFVASINWSGSNTYYAVAVKGRFTTSRDNAKNTVYLQMNSLKPEDTAVYYCNAFAAGWGPDYWGQGTQVTVSS
notes: Cloned in the phagemid pMECS; Same clonal group as Nb 57; also called Nanobody 19; source: E. coli WK6, periplasmic extract, purified (His GraviTrap, Sephadex G25)
Regarding B12, the binding result in assay [2] was “binds”.

B13: Nb 16 (VHH)
VHH: QVQLQESGGGLVQPGGSLRLSCAASGFTFSNYAMSWVRQAPGKGLEWVSGINKGGGSAYYSDSVKGRFTISRDNAENTLYLQMNNLKPEDTAVYYCVIPWGLGSNEYDYWGQGTQVTVSS
As to B13, in [6], the binding result was “binds”.

B14: Nb 22 (VHH)
VHH: QVQLQESGGGPVRAGESLRLSCTASGRAFSTYTMGWFRQAPGKERELVAVITPGGNTNYADSVKGRFTISRDDAKNTVYLQMNSLKPVDTAVYYCHVVLAVVGTGNEYDVWGQGTQVTVSS
notes: Cloned in the phagemid pMECS; also called Nanobody 22; source: E. coli WK6, periplasmic extract, purified (His GraviTrap, Sephadex G25)
With B14, the binding result in [2] and in assay [11] was “binds” in each case. The “fold difference in binding affinity between human and mouse EphA4” value in assay [9] was 2 fold.
